Assay results as given in the supplement of paper PMC9170038.

Assays:
[1] = system: MS2 coat protein; test: apparent KD of MS2 coat protein, switch ON state; designed switch direction (-1 OFF switch, 1 ON switch): -1; higher = weaker reporter binding; conditions: FMN input: 0 or 200 uM; Eterna round: R93 (includes R88 designs)
In short: (§1)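 Normalised binding curves from single clusters were fitted, and the median fit for each design is given as apparent KD. The clusters held designed RNA switches transcribed on-chip from Illumina sequencing clusters. These were titrated with SNAP-549-labelled MS2 coat protein (twofold steps from 0.7 or 1.5 nM to 3 µM, 0.8–1.5 h to 10–20 min per step) in 100 mM Tris-HCl pH 7.5, 80 mM KCl, 4 mM MgCl2, without or with constant ligand.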

[2] = system: MS2 coat protein; test: apparent KD of MS2 coat protein, switch OFF state (with FMN for OFF switches, without FMN for ON switches); designed switch direction (-1 OFF switch, 1 ON switch): -1; higher = weaker reporter binding; conditions: FMN input: 0 or 200 uM; Eterna round: R93 (includes R88 designs)
In short: as §1

Sequence | apparent KD of MS2 coat protein [1] [nM] | apparent KD of MS2 coat protein [2] [nM]
AAAAAUGGAGGAUAUACAUGAGGAUCACCCAUGUGUAACUAUACUAAGCGCUCCUCAGGUAGAAGGCCAAAAAA [Gilly Gone Silly 15 - Jieux - Exclusion 3] | 70.9 | 48
AAAAAGUGAGGAUAUGCGCUGUCAAGUAGACACGAGCAGUCGUAGAAGGCACAUGAGGAUCACCCAUGUUCAAA [EX4 Malc#22] | 25.4 | 16
AAGAACGGAGGAUAUACAAAAUAAAAGAAAAGAAAGAAAGAACAUGAGGAUCACCCAUGUAGAAGGUCGAAGAA [Seth Meribre] | 14.9 | 20.8
AAAAAGUCAGGAUAUACGAACAUGUCAAAAGACGUGAAGGGACAUGAGGAUCACCCAUGUAGAAGGGACAAGAA [JL Stem Breaker 20] | 85.2 | 39.6
GUGUACAGAGGAUAUACAUGAGCUAGGAAACUAGCAAGAUCACAUGAGGAUCACCCAUGUAGAAGGCUGUACAC [Ex2: 734] | 70 | 16.3
CAGUACUGAGGAUAUACAUGAGGAUCACCCAUGUGGUCAAGCUACGAAAGUAGCAAAAGUAGAAGGCAGUACUG [Ex3: 811] | 209 | 34.6
AAAAAGAAAGGAUAUACGAACAUGUCGAAAGACGUGAAGGGACAUGAGGAUCACCCAUGUAGAAGGUUUAAAAA [Mat - Exclusion 2 - JL mod - D82] | 25.2 | 17.9
AGGAAACAUGAGGAUCACCCAUGUGAGGAUAUGAACGAAAUAAAAUAAAAAUAAAAGUUCAGAAGGCAUAAAAA [Mat - Exclusion 1 - Eli mod - D7] | 26.8 | 24.4
AACUGACAUGAGGAUCACCCAUGUCAGGAUAUGACAUCGAGAAAUAAAUAAAUCGUUGUCAGAAGGGACAUGAA [Design 79: Sub-opt TB] | 17.5 | 13.4
AAAAGACAUGAGGAUCACCCAUGUUAGGAUAUCGUGCAGAAAAAAAAAAAAAACUGCACGAGAAGGAACAAGGA [Seclusion] | 30.5 | 51.9
AAAAAACAUGAGGAUCACCCAUGUAAGGAUAUGCUGAAAAACACGGAAAAAACGUGCAGCAGAAGGUACAAAAA [66%, Wbt, 33] | 20.1 | 28.3
AAGAAGGGAGGAUAUACAUGAGGAUCACCCAUGUAAAAGAAAGAAAAGGGAAAGAAAAGUAGAAGGCCCAAGAA [Seqenenre Tao] | 36.9 | 40.2
AAAAAACAUGAGGAUCACCCAUGUGAGGAUAUGAUGCGAAUAAAGAAAGAAUAAAGCAUCAGAAGGCACACCAA [Mat - Exclusion 1 - Eli mod - D61] | 27.9 | 48.7
AGCUAGUGAGGAUAUACGAACAUGUCAACAGACUGUAAGGGACAUGAGGAUCACCCAUGUAGAAGGCACUAGCA [Diamond 56] | 59.4 | 174
AAGAAGUGAGGAUAUCGAAGACUGUCGAAAAGACAGUCGAACGAGAAGGCACAUGAGGAUCACCCAUGUAAGAA [Marsupial] | 34.4 | 45
AUAAUGUGAGGAUAUACAUGAGGAUCACCCAUGUAAUUAAAAAGGAGAGACACAAUUCGUAGAAGGUACAUUUA [JR_Exc003_Sub509] | 23.4 | 26.3
AUAAAACAUGAGGAUCACCCAUGUGAGGAUAUGCGAAACAAACAAACAAACAAACAAAGCAGAAGGCACAAUAA [Amethyst 9] | 22.6 | 24.6

Sequence | apparent KD of MS2 coat protein [1] [nM] | apparent KD of MS2 coat protein [2] [nM]
AACAUACAUGAGGAUCACCCAUGUCAGGAUAUGCCGGGUUAGAACCAAAAAAAAAAACGUAGAAGGGACAAAAA [Bilbo Confounded 4 - Jieux - Exclusion 1] | 234 | 140
AAGAAGUCAGGAUAUCGAAGACUGUCGAAAAGACAGUCGAACGAGAAGGGACAUGAGGAUCACCCAUGUGGAAG [Mat - Exaclusion 4 - Eli mod - D72] | 99.2 | 321
AAAGGGUCAGGAUAUCGAUUAAUAAUAAAAUAAAUAAAGAUCGAGAAGGGACAUGAGGAUCACCCAUGUAUAAA [May 77] | 45.9 | 54.6
GGUUGAAUAGGAUAUACAUGAGGAUCACCCAUGUGAGAGAAAAAAGUGAGAAAGAAAAGUAGAAGGAUUUGACG [salish99-ex3-61] | 34.7 | 65.1
AUAAAGCGAGGAUAUACAUGAGGAUCACCCAUGUAAAUAAAUAGGAGAGCCACAAUAAGUAGAAGGUGUAAUAA [JR_Exc003_Sub009] | 62.6 | 73.3
AAGAAGUGAGGAUAUCGAAGACUGUCGAAAAGACAGUCGAACGAGAAGGCACAUGAGGAUCACCCAUGUGAAAA [Marsurpial 65% 4] | 22.1 | 33.1
GGGUCACAUGAGGAUCACCCAUGUAAGGAUAUGCUAGGGAUGGAAGCCAGGCCAAAAAGCAGAAGGUACUAAAG [Janelle Amethyst 18 Mod 15 - Jieux - Exclusion 1] | 41.2 | 85.8
AAAAAUGGAGGAUAUACAUGAGGAUCACCCAUGUGUAACUAUACUAAACACAAAAAAAGUAGAAGGCCAAAAAA [Gilly Gone Silly 8 - Jieux - Exclusion 3] | 32.7 | 50
CAAAGGUGAGGAUAUACAAAAAAAUGACGAAAGUCAUCCACACAUGAGGAUCACCCAUGUAGAAGGCACCACAA [E2 64% 6] | 30 | 29.2
GAAAAACAUGAGGAUCACCCAUGUGAGGAUAUGAACGAAAUAAAAUAAAAAUAAAAGUUCAGAAGGCACAAAAG [Mat - Exclusion 1 - Eli mod - D12] | 34 | 69.9
AAGAUGUCAGGAUAUGUGUAAAGAAUAAAAGAAAUAACAACACAGAAGGGACAUGAGGAUCACCCAUGUCAACA [May 34] | 26.9 | 19.8
AAAUAGCAAGGAUAUACAUGAGGAUCACCCAUGUGAACAAGGUAUGGAAUAGAAUAGAGUAGAAGGUGCAAAUA [Mod 2 of Ex 3 Tesla 8 - Jieux - Exclusion 3] | 31.3 | 43.4
AAGAACUGAGGAUAUGCAAAAGGGAAAGCUGAUCCUCAUCUACAUGAGGAUCACCCAUGUAGAAGGCGGGAAAU [Aveerve] | 63.4 | 47.7
AUAGUACAUGAGGAUCACCCAUGUCAGGAUAUCGGAUGUGACAUGAAAAAAAUGUUAGUGAGAAGGGACUAUAA [EX1 Malc#18 Mod 3 - Jieux - Exclusion 1] | 66.9 | 111
AACAGGUCAGGAUAUGUGGAAAAAAUAAAAAAAAUAAAAACACAGAAGGGACAUGAGGAUCACCCAUGUAAAUA [May 22] | 58 | 114
CACGGACAUGAGGAUCACCCAUGUGAGGAUAUGCUCUACGAACGUUUUCCCACGAGAAGCAGAAGGCACAUUUC [try 2] | 42.6 | 90.8
AACUAGCUAGGAUAUACAUGAGGAUCACCCAUGUAAAAAAAAAAAAAAAGAUUUAUAUGUAGAAGGAGCUAGUA [Design 3 - Brourd - Exclusion 3] | 31.6 | 61.8
